The Human Domainome abundance scans (Beltran et al. 2025)
± gives the uncertainty stated by the source.

B1: Far upstream element-binding protein 3, residues 75 to 150; numbered along this chain, Q96I24 (parent)
chain: RTVITEEFKVPDKMVGFIIGRGGEQISRIQAESGCKIQIASESSGIPERPCVLTGTPESIEQAKRLLGQIVDRCRN

Variants of: B1
Experiment: abundance fitness (aPCA) (normalised: wild type 0, dead -1); higher = more abundant; growth selection in yeast, the domain comes from the species named
Conditions: Homo sapiens
In the case of D12F, the abundance fitness is reported as -0.186 ± 0.064.
D12V gave an abundance fitness of -0.137 ± 0.031.
Work on D12A yielded an abundance fitness of -0.024 ± 0.03.
In the case of D12S, the abundance fitness is reported as -0.027 ± 0.032.
In the case of D12E, the abundance fitness is reported as -0.053 ± 0.036.
D12L gave an abundance fitness of -0.173 ± 0.031.
Work on D12T yielded an abundance fitness of -0.073 ± 0.04.
Variant D12N has an abundance fitness of -0.004 ± 0.058.
For D12W, the abundance fitness was -0.255 ± 0.034.
Variant D12P has an abundance fitness of -0.058 ± 0.039.
D12Y showed an abundance fitness of -0.116 ± 0.073.
Work on D12M yielded an abundance fitness of -0.144 ± 0.041.
In the case of D12G, the abundance fitness is reported as -0.095 ± 0.027.
E7D showed an abundance fitness of -0.02 ± 0.047.
In the case of E7H, the abundance fitness is reported as -0.002 ± 0.05.
E7S gave an abundance fitness of -0.019 ± 0.032.
With E7Y the abundance fitness was -0.037 ± 0.055.
E7G showed an abundance fitness of -0.083 ± 0.026.
E7K gave an abundance fitness of -0.01 ± 0.041.
In the case of E7T, the abundance fitness is reported as -0.002 ± 0.042.
Variant E7M has an abundance fitness of -0.111 ± 0.04.
With E7C the abundance fitness was -0.135 ± 0.037.
Work on E7L yielded an abundance fitness of -0.048 ± 0.029.
E7V showed an abundance fitness of -0.036 ± 0.029.
Variant E7R has an abundance fitness of -0.057 ± 0.027.
In the case of E7F, the abundance fitness is reported as 0.088 ± 0.05.
E7Q showed an abundance fitness of -0.072 ± 0.039.
With E7A the abundance fitness was -0.078 ± 0.031.
With E7P the abundance fitness was -0.136 ± 0.043.
Work on E7I yielded an abundance fitness of -0.048 ± 0.064.
I4N showed an abundance fitness of -0.081 ± 0.061.
I4G showed an abundance fitness of -0.14 ± 0.026.
Work on I4E yielded an abundance fitness of -0.059 ± 0.034.
I4K gave an abundance fitness of -0.035 ± 0.049.
With I4A the abundance fitness was -0.122 ± 0.032.
Variant I4Y has an abundance fitness of -0.006 ± 0.066.
For I4S, the abundance fitness was -0.141 ± 0.035.
Variant I4W has an abundance fitness of -0.125 ± 0.033.
Work on I4C yielded an abundance fitness of -0.092 ± 0.045.
For I4H, the abundance fitness was -0.146 ± 0.052.
I4T gave an abundance fitness of -0.045 ± 0.041.
With I4R the abundance fitness was -0.065 ± 0.026.
In the case of I4L, the abundance fitness is reported as -0.081 ± 0.03.
With I4F the abundance fitness was -0.095 ± 0.049.
I4V gave an abundance fitness of -0.047 ± 0.029.
Work on I4Q yielded an abundance fitness of -0.087 ± 0.037.
Work on E6R yielded an abundance fitness of -0.099 ± 0.028.
For E6A, the abundance fitness was -0.067 ± 0.03.
In the case of E6W, the abundance fitness is reported as -0.375 ± 0.033.
With E6N the abundance fitness was -0.242 ± 0.067.
With E6S the abundance fitness was -0.042 ± 0.032.
For E6T, the abundance fitness was -0.06 ± 0.039.
Work on E6F yielded an abundance fitness of -0.16 ± 0.056.
E6H showed an abundance fitness of -0.09 ± 0.063.
In the case of E6Y, the abundance fitness is reported as -0.145 ± 0.054.
For E6Q, the abundance fitness was -0.068 ± 0.041.
With E6C the abundance fitness was -0.022 ± 0.041.
Variant E6G has an abundance fitness of -0.19 ± 0.026.
E6M gave an abundance fitness of -0.103 ± 0.039.
Variant E6V has an abundance fitness of -0.051 ± 0.029.
For E6P, the abundance fitness was -0.807 ± 0.054.
With E6I the abundance fitness was -0.111 ± 0.057.
E6D gave an abundance fitness of -0.084 ± 0.047.
E6L showed an abundance fitness of -0.235 ± 0.03.
E6K showed an abundance fitness of -0.018 ± 0.043.
Work on V10A yielded an abundance fitness of -0.287 ± 0.034.
For V10L, the abundance fitness was -0.036 ± 0.029.
For V10D, the abundance fitness was -0.479 ± 0.05.
V10W showed an abundance fitness of -0.295 ± 0.032.
V10R gave an abundance fitness of -0.8 ± 0.035.
Work on V10F yielded an abundance fitness of -0.055 ± 0.057.
Work on V10T yielded an abundance fitness of -0.407 ± 0.038.
Variant V10I has an abundance fitness of -0.036 ± 0.056.
V10G gave an abundance fitness of -0.634 ± 0.03.
With V10P the abundance fitness was -0.514 ± 0.044.
In the case of V10Q, the abundance fitness is reported as -0.675 ± 0.047.
For V10M, the abundance fitness was -0.122 ± 0.039.
In the case of V10H, the abundance fitness is reported as -0.4 ± 0.053.
For V10N, the abundance fitness was -0.612 ± 0.081.
V10Y gave an abundance fitness of -0.291 ± 0.059.
Variant V10K has an abundance fitness of -0.794 ± 0.063.
Variant V10E has an abundance fitness of -0.631 ± 0.039.
With F8P the abundance fitness was -0.651 ± 0.051.
F8W showed an abundance fitness of -0.027 ± 0.031.
For F8S, the abundance fitness was -0.18 ± 0.037.
For F8L, the abundance fitness was -0.097 ± 0.03.
For F8M, the abundance fitness was -0.083 ± 0.045.
F8K showed an abundance fitness of -0.397 ± 0.053.
F8E gave an abundance fitness of -0.351 ± 0.038.
Work on F8N yielded an abundance fitness of -0.353 ± 0.074.
Variant F8V has an abundance fitness of -0.064 ± 0.029.
In the case of F8H, the abundance fitness is reported as -0.173 ± 0.071.
In the case of F8Y, the abundance fitness is reported as -0.024 ± 0.076.
F8R showed an abundance fitness of -0.543 ± 0.029.
F8Q gave an abundance fitness of -0.34 ± 0.046.
For F8D, the abundance fitness was -0.208 ± 0.07.
F8T gave an abundance fitness of -0.042 ± 0.046.
F8C gave an abundance fitness of -0.317 ± 0.041.
In the case of M14F, the abundance fitness is reported as -0.127 ± 0.08.
M14C gave an abundance fitness of -0.063 ± 0.048.
For M14Q, the abundance fitness was -0.248 ± 0.043.
M14I showed an abundance fitness of -0.33 ± 0.066.
With M14A the abundance fitness was -0.172 ± 0.035.
Work on M14E yielded an abundance fitness of -0.216 ± 0.038.
With M14R the abundance fitness was -0.423 ± 0.029.
Variant M14P has an abundance fitness of -0.451 ± 0.05.
With M14H the abundance fitness was -0.089 ± 0.055.
M14G gave an abundance fitness of -0.311 ± 0.026.
For M14K, the abundance fitness was -0.345 ± 0.055.
M14D gave an abundance fitness of -0.126 ± 0.059.
M14L gave an abundance fitness of -0.061 ± 0.032.
For M14Y, the abundance fitness was -0.176 ± 0.083.
M14W gave an abundance fitness of -0.063 ± 0.032.
M14N gave an abundance fitness of -0.101 ± 0.073.
For M14V, the abundance fitness was -0.159 ± 0.033.
V3Q gave an abundance fitness of -0.084 ± 0.043.
Work on V3D yielded an abundance fitness of -0.111 ± 0.049.
Variant V3K has an abundance fitness of -0.001 ± 0.05.
V3W gave an abundance fitness of -0.106 ± 0.035.
Work on V3N yielded an abundance fitness of 0.073 ± 0.093.
For V3I, the abundance fitness was 0.044 ± 0.075.
V3F showed an abundance fitness of -0.066 ± 0.065.
With V3Y the abundance fitness was -0.053 ± 0.069.
For V3R, the abundance fitness was -0.085 ± 0.027.
For V3L, the abundance fitness was -0.007 ± 0.034.
For V3H, the abundance fitness was -0.155 ± 0.074.
V3G gave an abundance fitness of -0.166 ± 0.025.
V3T showed an abundance fitness of -0.098 ± 0.043.
Work on V3A yielded an abundance fitness of -0.064 ± 0.034.
With V3P the abundance fitness was -0.117 ± 0.043.
In the case of V3C, the abundance fitness is reported as -0.081 ± 0.044.
In the case of V3M, the abundance fitness is reported as -0.037 ± 0.046.
In the case of V3E, the abundance fitness is reported as -0.029 ± 0.035.
For T5V, the abundance fitness was -0.09 ± 0.032.
Work on T5Y yielded an abundance fitness of -0.164 ± 0.08.
Work on T5I yielded an abundance fitness of -0.231 ± 0.1.
Work on T5G yielded an abundance fitness of -0.3 ± 0.028.
T5W gave an abundance fitness of -0.192 ± 0.037.
Work on T5R yielded an abundance fitness of -0.063 ± 0.031.
In the case of T5D, the abundance fitness is reported as -0.204 ± 0.068.
With T5P the abundance fitness was -0.394 ± 0.059.
T5Q gave an abundance fitness of -0.099 ± 0.046.
Work on T5C yielded an abundance fitness of -0.203 ± 0.073.
T5S showed an abundance fitness of -0.082 ± 0.039.
Variant T5H has an abundance fitness of -0.071 ± 0.074.
In the case of T5K, the abundance fitness is reported as -0.068 ± 0.052.
Work on T5E yielded an abundance fitness of -0.043 ± 0.04.
Work on T5L yielded an abundance fitness of -0.314 ± 0.044.
For T5F, the abundance fitness was -0.201 ± 0.073.
Work on K9L yielded an abundance fitness of -0.021 ± 0.031.
With K9C the abundance fitness was -0.057 ± 0.041.
In the case of K9W, the abundance fitness is reported as -0.053 ± 0.031.
Work on K9A yielded an abundance fitness of -0.006 ± 0.031.
With K9G the abundance fitness was -0.006 ± 0.026.
With K9R the abundance fitness was -0.09 ± 0.027.
K9E showed an abundance fitness of -0.044 ± 0.034.
With K9M the abundance fitness was -0.016 ± 0.041.
In the case of K9H, the abundance fitness is reported as 0.012 ± 0.07.
Variant K9Q has an abundance fitness of -0.007 ± 0.038.
Variant K9I has an abundance fitness of -0.106 ± 0.059.
K9V gave an abundance fitness of -0.047 ± 0.028.
K9T gave an abundance fitness of -0.057 ± 0.038.
In the case of K9D, the abundance fitness is reported as -0.129 ± 0.044.
For K9N, the abundance fitness was -0.109 ± 0.063.
In the case of K9Y, the abundance fitness is reported as -0.114 ± 0.056.
In the case of K9S, the abundance fitness is reported as 0.025 ± 0.033.
In the case of K9F, the abundance fitness is reported as -0.031 ± 0.056.
